Measurements reported in US12006373.

Target: human CD3ε expressed on Jurkat T cells (clone E6-1) as part of TCR-CD3 complexes (human) (UniProt P07766)
Experiment: cell-based or functional assay

Chain of human CD3ε expressed on Jurkat T cells (clone E6-1) as part of TCR-CD3 complexes (human) (P07766 23-207, one chain of several): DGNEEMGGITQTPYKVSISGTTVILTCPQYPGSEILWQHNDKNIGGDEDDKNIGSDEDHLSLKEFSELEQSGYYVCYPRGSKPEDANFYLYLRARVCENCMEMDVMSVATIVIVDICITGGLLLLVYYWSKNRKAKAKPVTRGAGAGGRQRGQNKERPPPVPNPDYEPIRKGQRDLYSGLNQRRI

expansion of Jurkat cells during 48 hours of culture (hemocytometer count): 1.9 times
Substance: biotin anti-human CD3ε (OKT3) antibody coated on M280 streptavidin Dynabeads
